The text below walks through data of patent US20250076311A1 (Chugai, published 2025).

The target in assay [1] is T1, human FcγRIIaR extracellular domain, His-tagged (human, UniProt P12318 34-217).
T1 construct: also called human FcgRIIaR; FcγRIIa (type R); not shown: His-tag added to the C-terminus
T1 chain: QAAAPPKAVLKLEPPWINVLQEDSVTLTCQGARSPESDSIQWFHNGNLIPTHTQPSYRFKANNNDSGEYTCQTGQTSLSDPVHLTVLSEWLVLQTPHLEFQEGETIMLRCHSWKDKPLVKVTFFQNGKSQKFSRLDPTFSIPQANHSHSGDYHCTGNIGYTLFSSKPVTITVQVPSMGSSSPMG
The assay is described as follows: SPR (BIACORE); KD of SG1 divided by KD of the variant. Here is the method: (§1) The kinetic analysis of interactions between these antibodies and FcγR was carried out using BIACORE® T200 or BIACORE® 4000 (GE Healthcare). HBS-EP+ (GE Healthcare) was used as the running buffer, and the measurement temperature was set to 25° C. […] After the measurement, the antibody captured on the chip was washed off by allowing reaction with 10 mM glycine-HCl, pH1.5 and 25 mM NaOH so that the chip was regenerated and used repeatedly. The sensorgrams obtained as measurement results were analyzed by the 1:1 Langmuir binding model using the BIACORE® Evaluation Software to calculate the binding rate constant ka (L/mol/s) and dissociation rate constant kd (1/s), and the dissociation constant KD (mol/L) was calculated from these values. […] Regarding such interactions, KD values were calculated using the following 1:1 binding model described in BIACORE® T100 Software Handbook BR1006-48 Edition AE.

In assay [2] the target is T2, cynomolgus monkey FcγRIIa3 extracellular domain, His-tagged (cynomolgus monkey).
T2 construct: also called cyno FcgRIIa3; cynoFcγRIIa3; not shown: His-tag added to the C-terminus
T2 chain: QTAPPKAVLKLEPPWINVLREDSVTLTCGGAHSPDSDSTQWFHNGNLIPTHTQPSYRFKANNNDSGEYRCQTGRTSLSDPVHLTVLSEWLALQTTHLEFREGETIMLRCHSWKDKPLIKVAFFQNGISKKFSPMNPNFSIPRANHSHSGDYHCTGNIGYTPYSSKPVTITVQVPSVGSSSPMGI
The assay is described as above. Here is the method: as §1

Assay [3] addresses T3, human FcγRIIaH extracellular domain, His-tagged (human, UniProt P12318 34-217).
T3 construct: also called human FcgRIIaH; FcγRIIa (type H); not shown: His-tag added to the C-terminus
T3 sequence: T1 chain with R134H
The assay is described as above. The procedure:
as §1

The target of assay [4] is T4, human FcγRIIIaV extracellular domain, His-tagged (human, UniProt P08637 17-208).
T4 construct: also called human FcgRIIIaV; not shown: His-tag added to the C-terminus
The assay is described as follows: SPR (BIACORE), antibody captured on chip, soluble FcgR as analyte, 25 C.

The target in assay [5] is T5, cynomolgus monkey FcγRIIIaS extracellular domain, His-tagged (cynomolgus monkey, UniProt A3RFZ7 21-206 (rhesus entry)).
T5 construct: also called cyno FcgRIIIaS; cynoFcγRIIIaS; not shown: His-tag added to the C-terminus
The assay is described as above.

The target of assay [6] is T6, cynomolgus monkey FcγRIIb extracellular domain with C-terminal His-tag (cynomolgus monkey).
T6 construct: also called cyno FcgRIIb; cynoFcγRIIb
T6 chain: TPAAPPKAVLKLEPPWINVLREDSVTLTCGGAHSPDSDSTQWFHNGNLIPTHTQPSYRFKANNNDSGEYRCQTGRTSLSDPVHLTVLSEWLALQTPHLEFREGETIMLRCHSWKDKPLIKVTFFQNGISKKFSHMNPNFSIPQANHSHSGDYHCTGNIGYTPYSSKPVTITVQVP
Kind of assay: SPR (Biacore), antibody captured, FcgR analyte.

In assay [7] the target is T4, human FcγRIIIaV extracellular domain, …. Kind of assay: SPR (BIACORE); KD of SG1 divided by KD of the variant. The procedure: as §1
In general terms: SPR reads the build-up and loss of mass on a sensor chip optically.

The target of assay [8] is T2, cynomolgus monkey FcγRIIa3 …. Kind of assay: SPR (BIACORE), antibody captured on chip, soluble FcgR as analyte, 25 C.
Assay [9] concerns the target T5, cynomolgus monkey FcγRIIIaS …. Kind of assay: SPR (BIACORE); KD of SG1 divided by KD of the variant. Here is the method:
as §1

Assay [10] deals with T7, human FcγRIIb extracellular domain, His-tagged (human, UniProt P31994 43-217).
T7 construct: also called human FcgRIIb; not shown: His-tag added to the C-terminus
T7 sequence: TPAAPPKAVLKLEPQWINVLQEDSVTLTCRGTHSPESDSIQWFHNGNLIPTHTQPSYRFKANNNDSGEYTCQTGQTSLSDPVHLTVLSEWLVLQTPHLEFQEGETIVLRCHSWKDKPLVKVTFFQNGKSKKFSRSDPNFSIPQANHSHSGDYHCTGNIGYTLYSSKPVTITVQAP
The description is as above. The procedure:
as §1

The target of assay [11] is T8, cynomolgus monkey FcγRIIa1 extracellular domain, His-tagged (cynomolgus monkey).
T8 construct: also called cyno FcgRIIa1; cynoFcγRIIa1; not shown: His-tag added to the C-terminus
T8 chain: T2 chain with T95P, A121T, S128A, P133H, N135D
Kind of assay: SPR (BIACORE), antibody captured on chip, soluble FcgR as analyte, 25 C.

Assay [12] deals with T9, Mouse latent myostatin (mouse, UniProt O08689 26-267; O08689 268-376, limits assumed).
T9 sequence 1: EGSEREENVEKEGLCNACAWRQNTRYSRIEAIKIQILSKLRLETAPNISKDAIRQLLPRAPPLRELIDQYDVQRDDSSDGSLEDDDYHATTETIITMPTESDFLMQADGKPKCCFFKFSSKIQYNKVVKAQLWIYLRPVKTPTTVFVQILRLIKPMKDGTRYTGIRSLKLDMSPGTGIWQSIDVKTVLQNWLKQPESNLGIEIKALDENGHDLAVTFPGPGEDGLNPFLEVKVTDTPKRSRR
T9 sequence 2: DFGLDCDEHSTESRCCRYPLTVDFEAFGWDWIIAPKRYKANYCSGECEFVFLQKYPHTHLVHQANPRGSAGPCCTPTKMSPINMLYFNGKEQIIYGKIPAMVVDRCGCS
The assay is described as follows: SPR (Biacore T200), 37C, pH 7.4, antibody captured on ProA/G. Here is the method:
(§2) ProA/G (Pierce) was immobilized onto all flow cells of a CM4 chip using an amine coupling kit (GE Healthcare). All antibodies and analytes were prepared in ACES pH7.4 or pH5.8 buffer containing 20 mM ACES, 150 mM NaCl, 1.2 mM CaCl₂, 0.05% TWEEN® 20, 0.005% NaN3. […] The sensor surface was regenerated each cycle with 10 mM Glycine HCl pH1.5. Binding affinity was determined by processing and fitting the data to a 1:1 binding model using BIACORE® T200 Evaluation software, version 2.0 (GE Healthcare).

The target of assay [13] is T9, Mouse latent myostatin. Kind of assay: SPR (Biacore T200), 37C, pH 5.8, antibody captured on ProA/G. Here is the method:
as §2

Broadly, the Kd is the equilibrium constant for the complex coming apart.

Where a chain is given by its changes, count along the chain named.

T5 sequence (A3RFZ7 21-206): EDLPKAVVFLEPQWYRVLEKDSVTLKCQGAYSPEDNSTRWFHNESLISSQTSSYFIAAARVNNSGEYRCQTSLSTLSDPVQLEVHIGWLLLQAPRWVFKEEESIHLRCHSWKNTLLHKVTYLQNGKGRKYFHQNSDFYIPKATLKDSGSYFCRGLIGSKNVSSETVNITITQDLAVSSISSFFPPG
T4 sequence (P08637 17-208 F176V): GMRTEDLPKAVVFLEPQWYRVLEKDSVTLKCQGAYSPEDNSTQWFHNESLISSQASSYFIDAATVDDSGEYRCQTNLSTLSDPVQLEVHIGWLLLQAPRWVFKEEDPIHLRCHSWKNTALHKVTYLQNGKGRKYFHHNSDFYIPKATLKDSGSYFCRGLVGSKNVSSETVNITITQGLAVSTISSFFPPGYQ

B1: M103205H795-MY260/M103202L889-SK1 (antibody)
heavy: QVTLKESGPVLVKPTETLTLTCTVSGIDLSHDDISWVRQAPGKGLEWVGIISYAGSTYYASWAKGRLTISKDTSKNQVVLTMTNMDPVDTATYYCARGVPAYSHGGDLWGQGTLVTVSSASTKGPSVFPLAPSSKSTSGGTAALGCLVKDYFPEPVTVSWNSGALTSGVHTFPAVLQSSGLYSLSSVVTVPSSSLGTQTYICNVNHKPSNTKVDKKVEPKSCDKTHTCPPCPAPELLMGPSVFLFPPKPKDTLMISRTPEVTCVVVDVSDEDPEVKFNWYVDGVEVHNAKTKPREEQYNSTYRVVSVLTVLHQDWLNGKEYKCKVSNKALPKPIEKTISKAKGQPREPQVYTLPPSREEMTKNQVSLTCLVKGFYPSDIAVEWESNGQPENNYKTTPPVLDSDGSFFLYSKLTVDKSRWQQGNVFSCSVMHEALHNHYTQKSLSLSP
light: DIVMTQSPATLSLSPGERATLSCTSSQSVYHANWLSWFQQKPGQPPKLLIYWASTLAYGVPSRFSGSGSGTDFTLTISSLQPEDAATYYCAGGYGGGRYAFGQGTKVEIKRTVAAPSVFIFPPSDEQLKSGTASVVCLLNNFYPREAKVQWKVDNALQSGNSQESVTEQDSKDSTYSLSSTLTLSKADYEKHKVYACEVTHQGLSSPVTKSFNRGEC
For the molecule B1, the “KD fold (SG1 = 1)” value was determined as 0.5 fold in assay [1], 1.7 fold in [2] and 0.7 fold in assay [3]. Besides, the Kd stood at 30000 nM in assay [4] and 850 nM in assay [5].

B2: M103205H795-MY476/M103202L889-SK1 (antibody)
chain 1: B1 heavy with A233Y, M238T
chain 2: B1 light
As to B2, the Kd in [6] worked out at 390 nM.

B3: M103205H795-MY263/M103202L889-SK1 (antibody, human IgG1, kappa, name in EU numbering)
heavy: B1 heavy with M238Q
light: B1 light
notes: Asn at EU 236 of MY201 replaced with Gln
As to B3, in [7], the “KD fold (SG1 = 1)” value was found to be 0.39 fold. For the same molecule, in assay [8], the dissociation constant (Kd) turned out to be 73000 nM.

B4: M103205H795-MY262/M103202L889-SK1 (antibody, human IgG1, kappa, name in EU numbering)
heavy: B1 heavy with M238V
light: B1 light
notes: Asn at EU 236 of MY201 replaced with Val
With B4, the results for the “KD fold (SG1 = 1)” value in [9] and in assay [10] were 0.35 fold and 0.3 fold, respectively. Moreover, the figures for the Kd in [8] and in assay [11] were 80000 nM and 1500 nM, respectively.

B5: MS1032LO10-SG1 (antibody, human IgG1, kappa, V domains shown)
VH: QVTLKESGPVLVKPTETLTLTCTVSGIDLSHTDISWVRQAPGKGLEWVGIISYAGKTYYASWAKKRLTISKDTSKNQVVLTMTNMDPVDTATYYCARGVPAYSHGGDLWGQGTLVTVSS
VL: DIVMTQSPATLSLSPGERATLSCTSSQSVYHANWLSWFQQKPGQPPKLLIYWASTLAYGVPSRFSGSGSGTDFTLTISSLQPEDAATYYCAGGYGGGRYAFGQGTKVEIKR
In the assay with Mouse latent myostatin [12], B5 came in with a Kd of 0.314 nM.

B6: MS1032LO21-SG1 (antibody, human IgG1, kappa, V domains shown)
VH: B5 VH with T23K, T32D, G49S, K56S, K65G
VL: B5 VL with S25T, A32E
In the assay with Mouse latent myostatin [13], B6 showed a Kd of 29.4 nM.
